The values that follow are results of earlier work, collected in patent US8633160B2, “Small molecule inhibitors of PDZ interactions” (Nono Inc., priority 2005, dated 2014).

In data set [1] the target is N-type calcium channel (Homo sapiens, UniProt Q00975). The following applies: data of U.S. Provisional Application No. 60/904,507; cited from earlier work.
Data set [2] concerns middle cerebral artery occlusion (MCAO) model of stroke. The following applies: rat, previously tested; cited from earlier work.

Chain of N-type calcium channel (Q00975 whole entry): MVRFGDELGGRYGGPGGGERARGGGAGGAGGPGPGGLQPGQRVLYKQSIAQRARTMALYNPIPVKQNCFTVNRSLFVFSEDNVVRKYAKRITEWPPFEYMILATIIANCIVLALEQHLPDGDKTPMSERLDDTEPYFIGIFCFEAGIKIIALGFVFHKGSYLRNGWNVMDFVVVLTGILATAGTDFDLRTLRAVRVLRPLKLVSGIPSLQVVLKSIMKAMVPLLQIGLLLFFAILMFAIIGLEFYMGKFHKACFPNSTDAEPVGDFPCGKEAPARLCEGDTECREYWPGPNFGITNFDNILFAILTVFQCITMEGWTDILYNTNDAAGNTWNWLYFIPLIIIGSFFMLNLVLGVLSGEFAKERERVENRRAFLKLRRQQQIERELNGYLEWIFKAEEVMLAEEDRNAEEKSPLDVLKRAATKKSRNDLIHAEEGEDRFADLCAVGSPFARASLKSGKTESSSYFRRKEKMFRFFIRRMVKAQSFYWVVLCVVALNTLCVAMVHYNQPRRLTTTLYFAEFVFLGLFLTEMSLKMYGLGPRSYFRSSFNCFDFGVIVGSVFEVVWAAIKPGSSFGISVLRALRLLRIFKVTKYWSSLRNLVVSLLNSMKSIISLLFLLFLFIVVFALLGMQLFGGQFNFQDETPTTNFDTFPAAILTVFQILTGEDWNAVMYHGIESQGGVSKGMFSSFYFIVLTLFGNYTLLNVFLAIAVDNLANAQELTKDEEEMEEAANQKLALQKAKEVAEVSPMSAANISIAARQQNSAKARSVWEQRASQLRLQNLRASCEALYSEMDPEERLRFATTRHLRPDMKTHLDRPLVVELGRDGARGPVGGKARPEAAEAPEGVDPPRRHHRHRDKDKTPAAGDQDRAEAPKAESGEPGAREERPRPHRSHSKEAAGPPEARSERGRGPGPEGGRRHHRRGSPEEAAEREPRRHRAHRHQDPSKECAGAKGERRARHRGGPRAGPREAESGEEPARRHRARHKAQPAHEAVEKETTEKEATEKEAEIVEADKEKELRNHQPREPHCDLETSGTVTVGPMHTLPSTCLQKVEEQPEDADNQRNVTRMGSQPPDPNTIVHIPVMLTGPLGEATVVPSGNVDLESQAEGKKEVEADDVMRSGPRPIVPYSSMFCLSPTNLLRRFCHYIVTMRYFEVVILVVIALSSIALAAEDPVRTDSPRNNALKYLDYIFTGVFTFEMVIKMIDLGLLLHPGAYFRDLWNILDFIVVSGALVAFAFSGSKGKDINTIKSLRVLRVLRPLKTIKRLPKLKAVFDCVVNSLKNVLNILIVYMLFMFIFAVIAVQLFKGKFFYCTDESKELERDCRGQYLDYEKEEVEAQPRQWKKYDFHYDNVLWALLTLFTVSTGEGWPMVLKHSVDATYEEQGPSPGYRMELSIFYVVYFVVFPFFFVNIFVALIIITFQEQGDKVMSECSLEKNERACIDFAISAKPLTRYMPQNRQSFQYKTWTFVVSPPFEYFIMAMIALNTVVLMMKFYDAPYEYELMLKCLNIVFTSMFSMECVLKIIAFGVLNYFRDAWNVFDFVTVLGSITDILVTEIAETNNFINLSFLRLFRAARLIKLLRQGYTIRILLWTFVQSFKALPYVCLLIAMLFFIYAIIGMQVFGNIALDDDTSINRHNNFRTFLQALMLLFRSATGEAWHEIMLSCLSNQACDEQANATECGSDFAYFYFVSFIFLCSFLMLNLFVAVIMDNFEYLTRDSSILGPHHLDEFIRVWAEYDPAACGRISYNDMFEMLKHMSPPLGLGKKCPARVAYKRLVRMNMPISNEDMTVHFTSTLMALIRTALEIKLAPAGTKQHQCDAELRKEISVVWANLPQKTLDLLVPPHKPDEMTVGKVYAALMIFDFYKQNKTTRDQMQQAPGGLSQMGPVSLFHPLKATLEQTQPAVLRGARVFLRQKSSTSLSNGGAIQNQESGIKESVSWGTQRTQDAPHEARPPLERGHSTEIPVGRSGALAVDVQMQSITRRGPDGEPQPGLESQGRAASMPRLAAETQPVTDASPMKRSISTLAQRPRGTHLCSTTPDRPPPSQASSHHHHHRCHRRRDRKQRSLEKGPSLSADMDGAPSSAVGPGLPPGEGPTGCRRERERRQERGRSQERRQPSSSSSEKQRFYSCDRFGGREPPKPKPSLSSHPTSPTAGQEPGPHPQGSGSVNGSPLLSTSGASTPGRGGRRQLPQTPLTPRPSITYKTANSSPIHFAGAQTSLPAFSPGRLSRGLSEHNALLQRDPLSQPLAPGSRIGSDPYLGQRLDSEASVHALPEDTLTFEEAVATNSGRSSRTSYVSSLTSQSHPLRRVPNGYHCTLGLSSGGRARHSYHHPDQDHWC

YGRKKRRQRRR [Tat]: the “Inhibition of the N-type calcium channel” value in data set [1] is “sufficient to induce the observed inhibition”. Turning to “YGRKKRRQRRRKLSSIESDV [Tat-NR2B9c, known neuroprotective peptide]”, in data set [2], the “Neuroprotection (infarct size)” value is listed as “neuroprotective as seen by a reduced infarct size”.
